Experimental data as given in patent US11285197B2, “Mesothelin vaccines and model systems” (priority 2002, dated 2022).

Target: T1, HLA-A2 (Homo sapiens, UniProt P04439, D140Y/D185E/D98H/E176V/E277Q/G131W/G231S/I119V/I121R/I166T/I218V/L300P/L318F/N151K/N90K/P208A/P217A/Q86G/Q94H/R138H/R169H/T345S)
T1 construct: pulsing TAP deficient T2 cells that expressed the corresponding HLA class I molecule (T2-A2, T2-A3, or T2-A24 cells); endogenous in cells; host or cells: human T2 cells (TAP-deficient B/T lymphoblast hybrid), called T2-A2
Experiment: T2 peptide/MHC binding assay, T2-A2 cells, W6/32 staining, flow cytometry
Conditions: T2-A2 cells pulsed with peptide, HLA class I antibody W6/32, flow cytometry

## EIDESLIFY (listed as Homo sapiens)
  detection of HLA-A2 on the cell surface of peptide-pulsed T2-A2 cells: do not stain
